# From patent US5405946A, “Recombinant protein S variants deficient in C4BP binding activity, compositions and therapeutic methods” (The Scripps Research Institute, priority 1992, dated 1995)
# Changes are numbered by the printed parent chain. Names and notes keep the numbering of the source. “Also recorded” adds a separate entry of the source.
# T1: C4BP (Homo sapiens, UniProt P20851)
# T1 sequence (P20851 18-252): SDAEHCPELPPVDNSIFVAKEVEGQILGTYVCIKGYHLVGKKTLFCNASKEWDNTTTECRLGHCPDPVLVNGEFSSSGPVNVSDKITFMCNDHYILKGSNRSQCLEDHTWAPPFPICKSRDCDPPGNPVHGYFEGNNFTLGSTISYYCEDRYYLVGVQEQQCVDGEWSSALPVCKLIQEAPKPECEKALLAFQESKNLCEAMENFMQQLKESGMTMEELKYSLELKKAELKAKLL
# T1 sequence (P04003 49-597 partner): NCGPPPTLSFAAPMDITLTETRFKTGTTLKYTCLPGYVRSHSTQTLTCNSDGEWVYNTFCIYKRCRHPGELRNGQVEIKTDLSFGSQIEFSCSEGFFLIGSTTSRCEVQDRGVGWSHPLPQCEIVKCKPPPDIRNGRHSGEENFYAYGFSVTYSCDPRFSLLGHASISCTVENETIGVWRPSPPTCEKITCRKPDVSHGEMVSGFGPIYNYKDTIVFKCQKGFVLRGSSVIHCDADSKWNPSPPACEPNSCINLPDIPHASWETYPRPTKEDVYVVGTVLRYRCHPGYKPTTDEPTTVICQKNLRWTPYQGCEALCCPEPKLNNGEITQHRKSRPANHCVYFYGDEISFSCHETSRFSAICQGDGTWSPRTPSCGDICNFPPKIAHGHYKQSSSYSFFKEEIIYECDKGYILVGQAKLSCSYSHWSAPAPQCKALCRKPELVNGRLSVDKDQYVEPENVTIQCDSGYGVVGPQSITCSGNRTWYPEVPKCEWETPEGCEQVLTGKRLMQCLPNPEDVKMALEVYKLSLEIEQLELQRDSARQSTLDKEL
# T2: human C4b-binding protein (C4BP) (Homo sapiens, UniProt P20851)
# T2 sequence (P20851 18-252): T1 sequence (P20851 18-252)
# T2 sequence (P04003 49-597 partner): T1 sequence (P04003 49-597 partner)
# B1: R49L/R60L/R70I variant: recombinant protein S triple variant, arginines 49, 60 and 70 replaced by leucine or isoleucine (protein)
# chain: ANSLLEETKQGNLERECIEELCNKEEAREVFENDPETDYFYPKYLVCLLSFQTGLFTAALQSTNAYPDLISCVNAIPDQCSPLPCNEDGYMSCKDGKASFTCTCKPGWQGEKCEFDINECKDPSNINGGCSQICDNTPGSYHCSCKNGFVMLSNKKDCKDVDECSLKPSICGTAVCKNIPGDFECECPEGYRYNLKSKSCEDIDECSENMCAQLCVNYPGGYTCYCDGKKGFKLAQDQKSCEVVSVCLPLNLDTKYELLYLAEQFAGVVLYLKFRLPEISRFSAEFDFRTYDSEGVILYAESIDHSAWLLIALRGGKIEVQLKNEHTSKITTGGDVINNGLWNMVSVEELEHSISIKIAKEAVMDINKPGPLFKPENGLLETKVYFAGFPRKVESELIKPINPRLDGCIRSWNLMKQGASGIKEIIQEKQNKHCLVTVEKGSYYPGSGIAQFHIDYNNVSSAEGWHVNVTLNIRPSTGTGVMLALVSGNNTVPFAVSLVDSTSEKSQDILLSVENTVIYRIQALSLCSDQQSHLEFRVNRNNLELSTPLKIETISHEDLQRQLAVLDKAMKAKVATYLGGLPDVPFSATPVNAFYNGCMEVNINGVQLDLDEAISKHNDIRAHSCPSVWKKTKNS
# B2: K429E variant: recombinant human protein S with glutamic acid in place of lysine at position 429 (protein)
# chain: B1 chain with L49R, L60R, I70R, K429E
# Legend:
# C4BP = target: T1, C4BP; conditions: PS association with C4BP in plasma; read-out: dissociation constant; cited from earlier work
# [1] = target: T2, human C4b-binding protein (C4BP); test: ELISA of complex formation between recombinant PS variant proteins and C4BP; conditions: C4BP 1 ug/ml, 18 hours room temperature
# Experimental: The complex formation between the recombinant PS variant proteins and C4BP was measured with a sensitive ELISA using C4BP and a peroxidase conjugated anti-PS antibody as described by Chang et al., Thromb. Haemost., 67:526-532 (1992). Briefly, IgG at a concentration of 10 ug/ml from monoclonal antibody 8C11, which is directed against the alpha chain of C4BP (Hessing et al., J. Immunol., 144:204-208 (1990)), was coated in 50 mM NaHCO3 at pH 9.6 overnight at 4C. onto polyvinyl microtiter plates (Costar, Cambridge, Mass.). After washing to remove the unbound IgGs, the wells were blocked with 1% (w/v) BSA in 50 mM Tris-HCl at pH 7.5 containing 150 mM NaCl and 5 mM CaCl2 for 1 hour at room temperature. C4BP, prepared as described by Hessing et al., supra, was allowed to bind for 2 hours with a final concentration of 1 ug/ml. Increasing amounts of recombinant PS proteins (E424K, Q427E, K429E, […] and K432E) and wild-type recombinant PS prepared in Example 1 were then added in concentrations ranging from 0-150 ng/ml and maintained for 18 hours at room temperature. Bound proteins were allowed to bind to rabbit anti-human PS IgG conjugated to peroxidase (Dakopatts, Glostrup, Denmark) at a concentration of 0.3 ug/ml for 2 hours at room temperature. After washing the wells to remove the unbound proteins, 100 ul of 0.1M sodium phosphate/0.2M sodium citrate at pH 5.0 containing 0.04% 1,2-phenylenediamine dihydrochloride and 0.015% hydrogen peroxide was added. The hydrolysis of phenylenediamine was stopped by adding 50 ul 2N sulfuric acid. The absorbance was measured at 490 nm using a Vmax plate reader (Molecular Devices Corp., Menlo Park, Calif.). The data represented the mean of duplicate determinations.
# The binding of the of the thrombin domain recombinant PS variants to C4BP was determined. The complex formation between the recombinant proteins and C4BP was measured with a sensitive ELISA using anti-C4BP monoclonal antibody 8C11 lgG, purified C4BP and peroxidase conjugated anti-PS antibody as described in Example 2A.
# Anti-C4BP monoclonal antibody 8C11 IgG was coated onto microtiter wells to catch C4BP (1 ug/ml). Increasing amounts (0-100 ng/ml) of recombinant PS or variants (R49L, R60L, R70I, R49L/R60L, R60L/R70I, R49L/R70I and R49L/R60L/R70I) were added. Binding to C4BP was for 18 hours at room temperature. Bound PS variants were detected with anti-PS IgG conjugated to peroxidase (0.3 ug/ml). The results are the mean of duplicate values in two different experiments.
# [2] = target: activated protein C (APC) (Homo sapiens, UniProt P04070); test: Activated partial thromboplastin time clotting assay, APC cofactor activity in PS- and C4BP-depleted plasma; format: biochemical
# Experimental: (§1) An activated partial thromboplastin time clotting assay, using PS- and C4BP-depleted plasma, cephalin-kaolin reagent (Boehringer Mannhein, Indianapolis, Ind.), activated protein C (APC) and increasing amounts of recombinant PS variants was performed as described by Chang et al., Thromb. Haemost., 67:526-532 (1992). Briefly, to 50 ul PS and C4BP-depleted plasma (prepared as described by Koedam et al., J. Clin. Invest., 82:1236-1243 (1988)) was added 50 ul cephalin-kaolin reagent, 25 ul APC (Koedam et al., ibid) at 5 ug/ml and 15 to 45 ul recombinant PS variants (0-4 ug/ml) diluted in Michaelis buffer (28.5 mM sodium acetate, 28.5 mM sodium barbital and 116 mM NaCl, pH 7.35) and maintained for 3 minutes at 37C. Clotting was initiated by addition of 50 ul of 25 mM CaCl2 and the clotting time was measured in an Amelung-Coagulometer KC10.
# (§2) The ability of the variants to serve as a cofactor for APC was tested in a clotting assay. The clotting assay was performed as described in Example 2D. To examine the effects of thrombin on recombinant PS variants APC cofactor activity, one ml of purified recombinant PS variants listed above and prepared in Example 1D (4-40 ug/ml) was maintained with 1/20 vol (50 ul) of thrombin-Sepharose for 1 hour at 37C. in 50 mM Tris-HCl pH 7.5 containing […]. Thrombin-Sepharose was removed by centrifugation. Supernatants containing the thrombin-treated PS were stored at -20C. until used.
# (§3) The PS-dependent prolongation of the clotting time was measured in an activated partial thromboplastin time system using PS and C4BP depleted plasma, APC and cephalin-kaolin reagent as described in Example 2D. Increasing amounts of recombinant PS or the triple variant treated without or with thrombin were added. Clotting was initiated by the addition of CaCl2 and the clotting time was measured. The results are presented as the means of duplicate values.
# thrombin [3] = target: T3, thrombin (Homo sapiens, UniProt P00734); test: APC cofactor clotting assay after thrombin-Sepharose treatment of PS variants; format: biochemical
# T3 construct: maintained with 1/20 vol (50 ul) of thrombin-Sepharose for 1 hour at 37C
# Experimental: as §1, §2, §3
# thrombin [4] = target: T3, thrombin; test: Reduced SDS-PAGE of PS variants with thrombin treatment; format: biochemical; conditions: reduced SDS gels
# Experimental: The purity and integrity of the recombinant PS variants was established by SDS-PAGE on 12.5% gradient gels according to Laemmli, Nature, 227:680-685 (1970) using the Phast system (Pharmacia Biotechnology, Sweden). After electrophoresis, the proteins were stained with silver nitrate or transferred onto Immobilon membranes for subsequent detection by Western blot analysis using rabbit anti-PS IgG conjugated to peroxidase (3 ug/ml).
# For the thrombin-sensitive PS variant proteins, on reduced SDS gels, purified recombinant PS and the single and double variants all migrated as a doublet. […] The upper band of the doublet for recombinant PS and the single and double variants all could be converted into the lower band by thrombin treatment.
# [5] = test system: anti-PS monoclonal antibody LJ-56; test: Sandwich assay of LJ-56 reactivity to recombinant PS variant proteins; format: binding; conditions: LJ-56 0-10 ug/ml
# Experimental: Reactivity of LJ-56 to the recombinant PS variant proteins gave essentially the same results when a sandwich detecting assay was performed. In the sandwich assay, a fixed amount of recombinant PS variants produced in Example 1B1) (50 ng for E424K and 100 ng for wild type, Q427E and K429E) were added to wells previously coated with rabbit anti-PS IgG at 10 ug/ml in coating buffer and treated to block nonspecific binding sites as described above. Following a maintenance period for 18 hours at room temperature, the wells were washed with TBS and 100 ul of serial dilutions of anti-PS monoclonal antibody LJ-56 (0-10 ug/ml) was added and maintained for 2 hours at room temperature. Detection of the immunoreactant products was accomplished with rabbit anti-mouse IgG conjugated to peroxidase (1:1000). The hydrolysis of […] was measure at 490 nm using a Vmax plate reader as described in Example 2A.
# Chain of activated protein C (APC) (P04070 212-461 limits assumed): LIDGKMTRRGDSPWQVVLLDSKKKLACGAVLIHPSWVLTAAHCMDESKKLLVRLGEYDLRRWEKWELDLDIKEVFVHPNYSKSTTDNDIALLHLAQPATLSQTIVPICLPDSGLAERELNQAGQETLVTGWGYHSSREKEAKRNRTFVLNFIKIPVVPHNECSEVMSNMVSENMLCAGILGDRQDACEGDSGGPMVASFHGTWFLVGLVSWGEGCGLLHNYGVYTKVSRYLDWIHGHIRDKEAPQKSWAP
# Chain of activated protein C (APC) (P04070 43-197 limits assumed): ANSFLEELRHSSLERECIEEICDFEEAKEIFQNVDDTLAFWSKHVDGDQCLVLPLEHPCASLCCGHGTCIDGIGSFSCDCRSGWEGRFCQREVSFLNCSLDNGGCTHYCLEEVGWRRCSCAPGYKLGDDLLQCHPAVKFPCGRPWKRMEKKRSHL
molecule,measurement,setting,value
"PS: vitamin K-dependent protein of 75,000 molecular weight with 635 amino acid residues",Kd,C4BP,1 to 5 nM
B1,binding to C4BP,"[1]; thrombin domain variants, 0-100 ng/ml, in the presence of calcium",unaltered affinity for binding to C4BP
same,Clotting Time,"[2]; concentration 1.19 ug/ml, without protein S 72 ± 2 seconds",84 s
same,APC cofactor activity,[2]; not treated with thrombin,higher APC cofactor activity (as defined by prolongation of the clotting time) than recombinant PS; also recorded: retained full APC cofactor activity
same,Clotting Time After Treatment,"thrombin [3]; after thrombin treatment, concentration 1.19 ug/ml, without protein S 72 ± 2 seconds",85 s
same,APC cofactor activity after treatment with thrombin,thrombin [3]; thrombin-Sepharose 1 hour at 37C,retained its APC cofactor activity; also recorded: remained unchanged; also recorded: completely resistant to inactivation by thrombin
same,conversion of upper band into lower band by thrombin,thrombin [4],"not converted into a lower band, indicating that this triple variant was resistant to thrombin"
B2,binding to C4BP,"[1]; first disulfide loop variants, 0-150 ng/ml, calcium",failed to bind to C4BP at concentrations up to 50 ng/ml
same,Clotting Time,"[2]; final conc. 1.8 ug/ml, basal clotting 80",88 s
same,anticoagulant activity,[2]; in comparison with the basal clotting time of 80 seconds,anticoagulant activity increased linearly with increasing volumes of variant PS
same,clotting time at maximal inhibition of clotting,[2]; increasing amounts of variant,approximately 95 seconds
same,recognition by LJ-56,[5],not recognized
